Test results: PMC9574934, “Targeting the Phosphatidylserine-Immune Checkpoint with a Small-Molecule Maytansinoid Conjugate” (Journal of Medicinal Chemistry, 2022)
Entries after “also recorded” stand apart in the source; their conditions may differ.

Legend:
[1] = rats, 1 mg/kg i.v. once a week for 4 weeks
Method: The animal body weights were measured daily during the study period. At the end of the study on day 29, all the animals were euthanized with 100% CO2 and sacrificed for organ harvest followed by organ weight measurements and for blood sample collection followed by hematology and serum chemistry assays. Hematology and serum chemistry parameters were determined using a HEMAVET 950 automated analyzer (Drew Scientific, Santa Clara, CA, USA) and a FUJI DRI-CHEM NX500 automated analyzer (FUJIFILM, Tokyo, Japan), respectively.

[2] = Plasma incubation and tumor homogenate cleavage of conjugate; format: in vitro ADME
Description: Figure 3 In vivo targeting ability, plasma stability, and in vivo biodistribution of modified zinc dipicolylamine conjugates in subcutaneous HCC1806 tumor xenografts. […] (B) In vivo detection of PS-expression in the HCC1806 tumor xenograft model. Representative IVIS images of new Zn11-794 fluorescence probe in mice.

[3] = test system: HCC1806 triple-negative breast cancer (TNBC) xenografts
Method: (§1) Cancer cells, suspending in phenol red free medium/DPBS, were mixed with Matrigel (356237, BD Biosciences, San Jose CA, USA) in a 1:1 ratio. Human pancreatic cancer MIA PaCa-2 (1 × 10^6 cells) or triple-negative breast cancer HCC1806 (1 × 10^6cells) cells were subcutaneously inoculated to left flanks of male nude mice 6 weeks old (Biolasco, Taiwan) or female nude mice 6 weeks old by using a 1 mL syringe (needle 24G × 1 in., 0.55 × 25 mm; TERUMO). Tumor dimensions were measured twice a week with an electronic caliper (FOW54-200-777, PRO-MAX, Newton, Massachusetts, USA), and the volume of the subcutaneously growing tumor in mm^3 was calculated by the following formula: volume = (length × width[2])/2. Conjugates were formulated 10% DMA/20% Cremophor EL/70% injectable solution of 5% dextrose (D5W) for treating MIA PaCa-2 and HCC1806 xenograft tumors. […] Body weight of the mice and tumor volume were measured twice weekly.

[4] = Method: Six-week-old male ICR mice, from the Biolasco Taiwan, were divided into groups of three and dosed at 5 mg/kg intravenously. Blood samples were drawn from each animal at time points of 0.003, 0.083, 0.25, 0.5, 1, 2, 4, 6, 8, and 24 h and stored on ice (0–4 °C). With centrifugation (3000 rpm for 15 min at 4 °C in a Beckman Model Allegra 6R centrifuge), plasma was separated from the blood and stored in frozen conditions (−20 °C). […] The mice were sacrificed, and the blood samples of 0.5 mL each and tumor samples were collected at 0.5, 2, 6, 24, 72, and 168 h after administration. Each time point group included 4 mice. Mouse blood samples were collected in EDTA tubes and centrifuged at 13,000 rpm for 5 min at 4°C for plasma collection. Plasma and the harvested tumor samples were stored at −80°C until use. Fifty microliters of mouse plasma or the sample of tumor homogenated in ddH2O with dilution ratio of 1:3 (w/v) by MiniBeadbeater-16 (BioSpec Products Inc., OK, USA) was mixed with 100 μL of acetonitrile containing 250 ng/mL BPR0L187. The mixture was vortexed for 30 s and then centrifuged at 15000g for 20 min. The supernatant was transferred to a clean tube, and 15 μL of the supernatant was injected onto LC/MS/MS. Plasma samples were analyzed by liquid chromatography tandem mass spectrometry (LC/MS/MS). […]
[5] = test system: MIA PaCa-2 human xenografts; assay: MIA PaCa-2 xenograft antitumor efficacy; settings: 1 mg/kg intravenously twice weekly for two weeks (Figure 4)
Method: as §1

[6] = test system: sorafenib-resistant hepatocellular carcinoma (HCC) model
Method: (§2) In addition, a previously reported oncogene-induced, sorafenib-resistant HCC mouse model[50] was used in the current study to examine the antitumor activities of synthesized compounds. Male C57BL/6j mice 4–5 weeks old were purchased from the National Laboratory Animal Center (Taipei, Taiwan) and kept in the laboratory animal center (LAC) of NHRI. The mice received 2 μg of pCMV(CAT)T7-SB100 (Addgene #34879), 10 μg of pT/Caggs-NRASV12 (Addgene #20205), and 10 μg of pKT2/CLP-AKT-LUC plasmids through hydrodynamic injection and were monitored for tumor growth weekly using IVIS until the development of HCC in the liver. The animal study was reviewed and approved by the NHRI IACUC (Institutional Animal Care and Use Committee). HCC-bearing mice with the total flux from IVIS imaging above 1 × 10^9 photons/s were used for treatment of conjugates. […] Repetitive IVIS imaging was performed to track tumor progression, and tumor tissues of the treated HCC-bearing mice were collected at day 3, day 7, and day 14 post conjugate administrations for histological examination and RNA extraction. The tumor tissues of vehicle-treated HCC-bearing mice were collected at day 14 post treatment to serve as control samples.

[7] = test system: HCC tumor microenvironment; settings: HCC model
Method: as §2

[8] = test system: immunogenic gene expression in the TME; settings: treated HCC tumor tissue vs vehicle
Method: as §2
The concentration (absorbance at 260 nm) and purity (A260/280 and A260/230 ratios) of the extracted RNA were measured by spectrophotometry, and the integrity of the RNA was further determined by a 2100 Bioanalyzer system (Agilent Technologies). The RNA, hybridized with barcoded probes (NanoString Technologies) provided in the nCounter Mouse PanCancer Immune Profiling panel kit, was then used for measurement of the mRNA expression of 770 genes related to immune responses. Nanostring nSolver 4.0 and nCounter advanced analysis 2.0 software (NanoString Technologies) were used for data processing, immune cell profiling, and pathway scoring according to developer’s instructions.

[9] = Single intravenous dose pharmacokinetic study
Method: Six-week-old male ICR mice, from the Biolasco Taiwan, were divided into groups of three and dosed at 5 mg/kg intravenously. Blood samples were drawn from each animal at time points of 0.003, 0.083, 0.25, 0.5, 1, 2, 4, 6, 8, and 24 h and stored on ice (0–4 °C). With centrifugation (3000 rpm for 15 min at 4 °C in a Beckman Model Allegra 6R centrifuge), plasma was separated from the blood and stored in frozen conditions (−20 °C). […] The mice were sacrificed, and the blood samples of 0.5 mL each and tumor samples were collected at 0.5, 2, 6, 24, 72, and 168 h after administration. Each time point group included 4 mice. Mouse blood samples were collected in EDTA tubes and centrifuged at 13,000 rpm for 5 min at 4°C for plasma collection. Plasma and the harvested tumor samples were stored at −80°C until use. Fifty microliters of mouse plasma or the sample of tumor homogenated in ddH2O with dilution ratio of 1:3 (w/v) by MiniBeadbeater-16 (BioSpec Products Inc., OK, USA) was mixed with 100 μL of acetonitrile containing 250 ng/mL BPR0L187. The mixture was vortexed for 30 s and then centrifuged at 15000g for 20 min. The supernatant was transferred to a clean tube, and 15 μL of the supernatant was injected onto LC/MS/MS. Plasma samples were analyzed by liquid chromatography tandem mass spectrometry (LC/MS/MS). The chromatographic system Agilent 1200 series LC system and an Agilent ZORBAX Eclipse XDB-C8 column (5 μm, 3.0 × 150 mm) interfaced to an MDS Sciex API4000 tandem mass spectrometer equipped with an ESI in the positive scanning mode at 600 °C was used. Data acquisition was collected via multiple reactions monitoring (MRM). A gradient system was employed for the separation of analyte and IS. Mobile phase A was 10 mM ammonium acetate aqueous solution containing 0.1% formic acid. Mobile phase B was acetonitrile. The gradient profile was as follows: 0.0–1.1 min, 50% B; 1.2–3.7 min, 55%B–90%B; 3.8–5.0 min, 90%B–50%B. The flow rate was 1.5 mL/min. The autosampler was programmed to inject 15 μL of the sample every 5 min.

[10] = test system: ovarian, skin, and oral cancer cell lines; settings: Figure S2

## CCCCCC(=O)Nc1cccc(CN(Cc2cc(CN(Cc3ccccn3)Cc3cccc(NC(=O)CCCCC)n3)cc(OCCCCN(Cc3ccc(-c4ccccc4)cc3)C(=O)COCCOCCOCC(=O)NCc3ccc(CNC(=O)CCSSCCC(=O)N(C)[C@@H](C)C(=O)O[C@H]4CC(=O)N(C)c5cc(cc(OC)c5Cl)C/C(C)=C/C=C\[C@@H](OC)[C@@]5(O)C[C@H](OC(=O)N5)[C@@H](C)[C@@H]5O[C@@]45C)cc3)c2)Cc2ccccn2)n1.O=[N+]([O-])[O-].O=[N+]([O-])[O-].O=[N+]([O-])[O-].O=[N+]([O-])[O-].[Zn+2].[Zn+2] [Compound 40a]
[1]
  BUN and creatinine levels: normal
  GOT and GPT: slightly increased (not significant)
  hematologic (leukocyte, neutrophil, lymphocyte, and platelet) parameters: normal
  organ weights (liver and kidneys): did not alter organ weights
[2]; plasma
  stability in plasma incubation: stable
[2]; tumor homogenate
  cleavage with tumor homogenates: readily cleaved
[3]; intravenous twice per week (Figure 4B)
  antitumor efficacy against HCC1806 TNBC xenografts: potent antitumor efficacy
[3]; larger (400–800 mm^3) tumors, 2.5 mg/kg once per week for three weeks
  efficacy on larger HCC1806 tumors: potent efficacies and shrinkage
[4]; plasma of HCC1806 tumor-bearing mice
  plasma stability in vivo, detection of released 14: negligible detection of 14
[4]; tumor tissue of HCC1806 tumor-bearing mice
  14 released from 40a in the tumor mass: significant time-dependent increase
[5]
  antitumor efficacy: potent antitumor efficacies; also recorded: potent and lasting anti-MIA PaCa-2 activity
  body weight change during treatment: without apparent body weight loss
[6]; 1 mg/kg i.v. twice weekly for two weeks
  tumor burden by bioluminescence: significant decrease
[6]; 1 mg/kg injected twice weekly for two weeks
  activity against HCC tumor growth: potent activity
[6]; 14 days after treatment
  total liver weight: marked reduction
[7]; 1 mg/kg i.v.
  Ki67 expression in treated tumors: reduction
[7]; IHC staining
  infiltration of Gr-1+ monocytes and polymorphonuclear granulocytes and F4/80+ macrophages: increased infiltration
[7]; days 3, 7, and 14
  cytotoxic CD8+ T-cell infiltration: significant increase
[8]
  gene expression of CCL2: significantly elevated
  gene expression of CCL5 and CXCL10: Significant increases
  gene expression of STAT1: significantly elevated
[8]; n = 3
  T-cell, macrophage, NK cell, chemokine and receptor functions and inflammation score (gene set analysis): striking elevations
[9]; 40a compared with conjugates 30 and 36
  decrease in volume distribution (Vss): 5 fold
[9]; intact conjugate, male ICR mice, 5 mg/kg intravenous
  AUC(0-24 hr) Conjugate: 105,599 ng/mL*hr
[9]; male ICR mice, 5 mg/kg intravenous, n = 3
  CL: 0.9 mL/min/kg
[9]; male ICR mice, 5 mg/kg intravenous, n = 3, 5 mg/kg
  Vss: 0.1 L/kg
[9]; released payload 14, male ICR mice, 5 mg/kg intravenous of conjugate
  AUC(0-24 hr) Drug: 305 ng·h/mL
[10]
  potency against ovarian, skin, and oral cancer cell lines: highly potent
